This is an account of results in US20220228157A1, “GENE EDITING IN DIVERSE BACTERIA” (priority 2019, published 2022).

Read-outs that look alike come from different tables or passages of the source.

The test system of experiment [1] is Pseudomonas aeruginosa PAO1. Description: Recombineering efficiency by selective plating. In kind it is cell-based. From the text:
To test the activity of PapRecT and CspRecT in these three organisms, the broad-host-range pORTMAGE system (Nyerges et al., Proc. Natl. Acad. Sci. U.S.A. 113, 2502-2507 (2016)) was built on as described above. For experiments in E. coli PapRecT or CspRecT was subcloned in place of Redβ into pORTMAGE311B (Szili et al., Antimicrob. Agents Chemother. AAC.00207-19 (2019) doi:10.1128/AAC.00207-19) (FIGS. 10A-10B; Addgene accession: #120418), which transiently disrupts MMR with EcMutL_E32K, and whose RSF1010 origin of replication and m-toluic-acid-based expression system allows the plasmid to be deployed over a broad range of bacterial hosts (Honda et al., Proc. Natl. Acad. Sci. U.S.A. 88, 179-183 (1991); Gawin et al., Microb. Biotechnol. 10, 702 (2017)). These same pORTMAGE-based constructs were used for testing in C. freundii and K. pneumoniae. […] It was found, however, that the efficiency of the plasmid construct was lower in P. aeruginosa than in the enterobacterial species that pORTMAGE was optimized for. Therefore, to increase editing efficiency in P. aeruginosa, i.) ribosomal binding sites (RBS) for PapRecT and EcMutL were optimized, ii.) EcMutL_E32K was replaced with its equivalent homologous mutant from P. aeruginosa (PaMutL_E36K), iii.) the native P. aeruginosa coding sequence for PapRecT was incorporated instead of the E. coli codon-optimized version (FIG. 13).
Virulent strains of P. aeruginosa are a frequent cause of acute infections in healthy individuals, as well as chronic infections in high-risk patients, such as those suffering from cystic fibrosis (Marvig et al., Nat. Genet. 47, 57-64 (2015)). The rate of antibiotic resistance in this species is growing, with strains adapting quickly to all clinically applied antibiotics (AbdulWahab et al., Lung India Off. Organ Indian Chest Soc. 34, 527-531 (2017); Tacconelli et al., Lancet Infect. Dis. 18, 318-327 (2018)). […] By genotyping and characterizing resistant colonies, the Minimum Inhibitory Concentration (MIC) of CIP for various resistant genotypes could be determined (Table 2, FIG. 14). […]

The next experiment has as its system E. coli. Description: Allelic recombination frequency, selective vs non-selective plates. Particulars: RecT alone. In kind it is cell-based, Escherichia coli. As for the experimental part: Four variants known to enable high genome editing efficiency were selected (Redβ and PapRecT in E. coli, LrpRecT in L. lactis, and MspRecT in M. smegmatis), and tested codon optimized versions of all four in both E. coli (gram-negative), and L. lactis (gram-positive). Genome editing efficiency was measured by introducing oligos encoding known antibiotic resistance mutations, and compared the antibiotic resistant cell counts to the total number of viable cells in the population (FIGS. 17E-17F). […] In L. lactis, LrpRecT was the only functional homolog, and improved oligo incorporation 7,700-fold, while the three other RecT variants were nearly non-functional, improving oligo incorporation less than 7-fold (FIG. 17H). No RecT protein functioned well both in E. coli and L. lactis.
A single colony of E. coli was grown overnight to saturation. In the morning 30 μL of dense culture was inoculated into 3 mL of fresh media and grown for 1 hour. To induce gene expression of the pARC8 vector for recombineering experiments, L-arabinose was added to a final concentration of 0.2% (w/v) and the cells were grown an additional hour. 1 mL of cells were pelleted at 4° C. by centrifugation at 12,000×g for 2.5 minutes and washed twice with 1 mL of ice-cold dH2O. Cells were resuspended in 50 μL ice-cold dH2O containing DNA and transferred to a pre-chilled 0.1 cm electroporation cuvette.
Electrocompetent cells were electroporated with 90-mer oligos at: 1 uM for E. coli, 50 μg for L. lactis, and 10 uM for C. crescentus. 70-mer oligos were used at 1 μg for M. smegmatis. All oligos were obtained from IDT and can be found under “Oligonucleotides for genome editing” in materials and methods. For dsDNA experiments L. lactis was electroporated with 1.5 μg purified linear dsDNA. Cells were electroporated using a Bio-Rad gene pulser set to 25 μF, 200 S2, and 1.8 kV for E. coli, 2.0 kV for L. lactis, and 1.5 kV for C. crescentus and to 1000Ω and 2.5 kV for M. smegmatis. Immediately after electroporation, cells were recovered in fresh media for 3 hours for E. coli, 1 hour for L. lactis, overnight for M. smegmatis and overnight for C. crescentus. L. lactis recovery media was supplemented with MgCl2 and CaCl2) at a concentration of 20 mM and 2 mM, respectively. E. coli recovery media was supplemented with carbenicillin. M. smegmatis recovery media was supplemented with hygromycin. C. crescentus recovery media was supplemented with 0.3% xylose and kanamycin. After recovery, the cells were serial diluted and plated on non-selective vs. selective agar plates to obtain approximately 50-500 CFU/plate. Colonies were counted using a custom script in Fiji, and allelic recombination frequency was calculated by dividing the number of colonies on selective plates, with the number of colonies on non-selective plates.

B1: Redβ: Redβ SSAP from Enterobacteria phage λ, SEQ ID NO: 474 (protein)
chain: MSTALATLAGKLAERVGMDSVDPQELITTLRQTAFKCDASDAQFIALLIVANQYGLNPWTKEIYAFPDKQNGIVPVVGVDGWSRIINENQQFDGMDFEQDNESCTCRIYRKDRNHPICVTEWMDECRREPFKTREGREITGPWQSHPKRMLRHKAMIQCARLAFGFAGIYDKDEAERIVENTAYTAERQPERDITPVNDETMQEINTLLIALDKTWDDDLLPLCSQIFRRDIRASSELTQAEAVKALGFLKQKATEQKVAA
modifications: Bacteriophage Lambda
Take B1: the “Editing performance in P. aeruginosa” value in experiment [1] is “does not work”. Moreover, the “Improvement of oligo incorporation” value in the experiment with E. coli is on record as 1600 fold.

B2: PapRecT: SSAP from Pseudomonas aeruginosa, SEQ ID NO: 24, UniParc ID: UPI0001E9E6CB (protein, listed as Pseudomonas aeruginosa)
chain: MGTALTPLLTKFATRYEMGTTPEEVANTLKQTCFKGQVNDSQMVALLIVADQYKLNPFTKELYAFPDKNNGIVPVVGVDGWARIINENPQFDGMEFSMDQQGTECTCKIYRKDRSHAISATEYMAECKRNTQPWQSHPRRMLRHKAMIQCARLAFGFAGIYDQDEAERIVERDVTPAEQYEDVSEAICLIKDSPTMEDLQAAFSNAWKAYKTKGARDQLTAAKDQRKKELLDAPIDVEFEETGDDRAA
Turning to B2, the figures for the “Editing performance in P. aeruginosa” value in experiment [1] and in experiment [1] (listed as SSAP SEQ ID NO: 24) were “performed the best” and “functions at high efficiency”, respectively. Moreover, in the experiment on E. coli, the “Improvement of oligo incorporation” value turned out to be 2700 fold.
